Experimental data taken from patent US20190241648A1 (STATEN BIOTECHNOLOGY B V, published 2019).
Ends that are not written are not given here.

Legend:
Test in all cases: peptide microarray
ApoC3 peptide … S62L = ApoC3 peptide … S62L (human, cyclic constrained)
In short: (§1)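 ApoC3 peptide microarrays incubated with antibody samples and then stained with goat anti-human IgG (Fc) DyLight680 plus anti-HA DyLight800 control antibody. Scanned at intensity 7/7 (red/green); a secondary-only prestain checked for background, and framing HA peptides served as quality control.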

ApoC3 peptide … F61S = molecular target: T1, ApoC3 peptide … F61S (human, not fully specified (bridges); also: cyclic constrained)
T1 peptide: DKSSEFWDLDPEV
In short: as §1

ApoC3 peptide … D68H = molecular target: T2, ApoC3 peptide … D68H (human, cyclic constrained)
T2 peptide: DKFSEFWDLHPEV
In short: as §1

ApoC3 peptide … F64D = molecular target: T3, ApoC3 peptide … F64D (human, not fully specified (bridges); also: cyclic constrained)
T3 peptide: DKFSEDWDLDPEV
In short: as §1

ApoC3 peptide … D59T = molecular target: T4, ApoC3 peptide … D59T (human, cyclic constrained)
T4 peptide: TKFSEFWDLDPEV
In short: as §1

ApoC3 peptide … P69F = molecular target: T5, ApoC3 peptide … P69F (human, not fully specified (bridges); also: cyclic constrained)
T5 peptide: DKFSEFWDLDFEV
In short: as §1

ApoC3 peptide … V71K = ApoC3 peptide … V71K (human, cyclic constrained)
In short: as §1

ApoC3 peptide … D68N = molecular target: T6, ApoC3 peptide … D68N (human, cyclic constrained)
T6 peptide: DKFSEFWDLNPEV
In short: as §1

ApoC3 peptide … E63K = ApoC3 peptide … E63K (human, cyclic constrained)
In short: as §1

ApoC3 peptide … F64N = molecular target: T7, ApoC3 peptide … F64N (human, not fully specified (bridges); also: cyclic constrained)
T7 peptide: DKFSENWDLDPEV
In short: as §1

ApoC3 peptide … D68K = molecular target: T8, ApoC3 peptide … D68K (human, cyclic constrained)
T8 peptide: DKFSEFWDLKPEV
In short: as §1

ApoC3 peptide … F61Y = molecular target: T9, ApoC3 peptide … F61Y (human, not fully specified (bridges); also: cyclic constrained)
T9 peptide: DKYSEFWDLDPEV
In short: as §1

ApoC3 peptide … F64W = molecular target: T10, ApoC3 peptide … F64W (human, not fully specified (bridges); also: cyclic constrained)
T10 peptide: DKFSEWWDLDPEV
In short: as §1

ApoC3 peptide … V71W = ApoC3 peptide … V71W (human, cyclic constrained)
In short: as §1

ApoC3 peptide … F61V = molecular target: T11, ApoC3 peptide … F61V (human, not fully specified (bridges); also: cyclic constrained)
T11 peptide: DKVSEFWDLDPEV
In short: as §1

ApoC3 peptide … W65N = molecular target: T12, ApoC3 peptide … W65N (human, not fully specified (bridges); also: cyclic constrained, ring type and places not given here)
T12 peptide: DKFSEFNDLDPEV
In short: as §1

ApoC3 peptide … P69Q = ApoC3 peptide … P69Q (human, cyclic constrained)
In short: as §1

ApoC3 peptide … P69W = ApoC3 peptide … P69W (human, cyclic constrained)
In short: as §1

ApoC3 peptide … S62R = ApoC3 peptide … S62R (human, cyclic constrained)
In short: as §1

ApoC3 peptide … D59I = molecular target: T13, ApoC3 peptide … D59I (human, cyclic constrained)
T13 peptide: IKFSEFWDLDPEV
In short: as §1

ApoC3 peptide … W65R = molecular target: T14, ApoC3 peptide … W65R (human, not fully specified (bridges); also: cyclic constrained, ring type and places not given here)
T14 peptide: DKFSEFRDLDPEV
In short: as §1

ApoC3 peptide … W65Q = molecular target: T15, ApoC3 peptide … W65Q (human, not fully specified (bridges); also: cyclic constrained, ring type and places not given here)
T15 peptide: DKFSEFQDLDPEV
In short: as §1

ApoC3 peptide … F64Q = molecular target: T16, ApoC3 peptide … F64Q (human, not fully specified (bridges); also: cyclic constrained)
T16 peptide: DKFSEQWDLDPEV
In short: as §1

ApoC3 peptide … V71N = ApoC3 peptide … V71N (human, cyclic constrained)
In short: as §1

ApoC3 peptide … K60D = molecular target: T17, ApoC3 peptide … K60D (human, not fully specified (bridges); also: cyclic constrained)
T17 peptide: DDFSEFWDLDPEV
In short: as §1

ApoC3 peptide … F64M = molecular target: T18, ApoC3 peptide … F64M (human, not fully specified (bridges); also: cyclic constrained)
T18 peptide: DKFSEMWDLDPEV
In short: as §1

ApoC3 peptide … D66P = molecular target: T19, ApoC3 peptide … D66P (human, not fully specified (bridges); also: cyclic constrained)
T19 peptide: DKFSEFWPLDPEV
In short: as §1

ApoC3 peptide … E63D = ApoC3 peptide … E63D (human, cyclic constrained)
In short: as §1

ApoC3 peptide … W65M = molecular target: T20, ApoC3 peptide … W65M (human, not fully specified (bridges); also: cyclic constrained, ring type and places not given here)
T20 peptide: DKFSEFMDLDPEV
In short: as §1

ApoC3 peptide … V71L = ApoC3 peptide … V71L (human, cyclic constrained)
In short: as §1

ApoC3 peptide … K60W = molecular target: T21, ApoC3 peptide … K60W (human, not fully specified (bridges); also: cyclic constrained)
T21 peptide: DWFSEFWDLDPEV
In short: as §1

ApoC3 peptide … W65E = ApoC3 peptide … W65E (human, cyclic constrained)
In short: as §1

ApoC3 peptide … E70G = molecular target: T22, ApoC3 peptide … E70G (human, not fully specified (bridges); also: cyclic constrained)
T22 peptide: DKFSEFWDLDPGV
In short: as §1

ApoC3 peptide … D59L = molecular target: T23, ApoC3 peptide … D59L (human, cyclic constrained)
T23 peptide: LKFSEFWDLDPEV
In short: as §1

ApoC3 peptide … L67W = molecular target: T24, ApoC3 peptide … L67W (human, not fully specified (bridges); also: cyclic constrained)
T24 peptide: DKFSEFWDWDPEV
In short: as §1

ApoC3 peptide … D68S = molecular target: T25, ApoC3 peptide … D68S (human, not fully specified; cyclic constrained)
T25 peptide: DKFSEFWDLSPEV
In short: as §1

ApoC3 peptide … S62V = ApoC3 peptide … S62V (human, cyclic constrained)
In short: as §1

B1: anti-ApoC3 antibody 6A6 (antibody, V domains shown)
VH: EVQLVESGGGLVQPGGSLRLSCAASGFTFSSYAGRWVRQVPGKGLEWVSSINAGGGSTSYADSVKGRFTISRDNAKNTLYLQMNSLKPEDTAKYYCTQNSYRYWGQGTRVAVSS
VL: DVVLTQTPGSLSVVPGESASISCKASQSLIHTDGKTYLYWLLQKPGQRPQLLIYQVSSHESGVPDRFTGSGSGTDFTLKISGVKAEDAGVYYCAQATYNPRTFGQGTKLEIK
notes: it was detected with goat anti-human IgG (Fc); also called mAb 6A6; llama antibody 6A6
- % of binding to wild-type peptide (ApoC3 peptide … S62L): 81%
- % of binding to wild-type peptide (ApoC3 peptide … F61S): 39.2%
- % of binding to wild-type peptide (ApoC3 peptide … D68H): 0%
- % of binding to wild-type peptide (ApoC3 peptide … F64D): 220%
- % of binding to wild-type peptide (ApoC3 peptide … D59T): 101%
- % of binding to wild-type peptide (ApoC3 peptide … P69F): 97.7%
- % of binding to wild-type peptide (ApoC3 peptide … V71K): 58.7%
- % of binding to wild-type peptide (ApoC3 peptide … D68N): 0%
- % of binding to wild-type peptide (ApoC3 peptide … E63K): 7.9%
- % of binding to wild-type peptide (ApoC3 peptide … F64N): 153%
- % of binding to wild-type peptide (ApoC3 peptide … D68K): 0%
- % of binding to wild-type peptide (ApoC3 peptide … F61Y): 112%
- % of binding to wild-type peptide (ApoC3 peptide … F64W): 69.5%
- % of binding to wild-type peptide (ApoC3 peptide … V71W): 59.2%
- % of binding to wild-type peptide (ApoC3 peptide … F61V): 47%
- % of binding to wild-type peptide (ApoC3 peptide … W65N): 56.5%
- % of binding to wild-type peptide (ApoC3 peptide … P69Q): 28.2%
- % of binding to wild-type peptide (ApoC3 peptide … P69W): 13.7%
- % of binding to wild-type peptide (ApoC3 peptide … S62R): 37.2%
- % of binding to wild-type peptide (ApoC3 peptide … D59I): 103%
- % of binding to wild-type peptide (ApoC3 peptide … W65R): 7.71%
- % of binding to wild-type peptide (ApoC3 peptide … W65Q): 38.3%
- % of binding to wild-type peptide (ApoC3 peptide … F64Q): 133%
- % of binding to wild-type peptide (ApoC3 peptide … V71N): 98.7%
- % of binding to wild-type peptide (ApoC3 peptide … K60D): 151%
- % of binding to wild-type peptide (ApoC3 peptide … F64M): 109%
- % of binding to wild-type peptide (ApoC3 peptide … D66P): 0%
- % of binding to wild-type peptide (ApoC3 peptide … E63D): 77.9%
- % of binding to wild-type peptide (ApoC3 peptide … W65M): 19.1%
- % of binding to wild-type peptide (ApoC3 peptide … V71L): 78%
- % of binding to wild-type peptide (ApoC3 peptide … K60W): 78.6%
- % of binding to wild-type peptide (ApoC3 peptide … W65E): 168%
- % of binding to wild-type peptide (ApoC3 peptide … E70G): 1.26%
- % of binding to wild-type peptide (ApoC3 peptide … D59L): 68.6%
- % of binding to wild-type peptide (ApoC3 peptide … L67W): 1.26%
- % of binding to wild-type peptide (ApoC3 peptide … D68S): 0.57%
- % of binding to wild-type peptide (ApoC3 peptide … S62V): 93.6%
